# System: Escherichia coli TOP10
# Assay: shrunken log2 fold change of peptide-encoding DNA abundance (4.5 h post-induction vs induction); higher = less antimicrobial activity (less host growth inhibition)
# Settings: time post-induction: 4.5 h; library: site-saturation at positions 5, 18, 19, 20
# 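Note: peptides expressed intracellularly from a pBAD plasmid library in pooled LB shake-flask culture, induced with 0.3% L-arabinose, DNA abundance read by NGS, three biological replicates, DESeq2 with apeglm shrinkage.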
row,Sequence,shrunken log2 fold change
1,RRIRGRPPRLPRPRPRPPYNPRP,-0.163
2,RRIRDRPPRLPRPRPRPGCIPRP,-0.158
3,RRIRGRPPRLPRPRPRPNLCPRP,-0.0201
4,RRIRARPPRLPRPRPRPASNPRP,0.5
5,RRIRQRPPRLPRPRPRPVHFPRP,-0.00916
6,RRIRRRPPRLPRPRPRPVPVPRP,0.128
7,RRIRPRPPRLPRPRPRPLHDPRP,-0.034
8,RRIRLRPPRLPRPRPRPWNCPRP,-0.493
9,RRIRIRPPRLPRPRPRPADKPRP,-0.194
10,RRIRERPPRLPRPRPRPFEEPRP,-0.217
11,RRIRQRPPRLPRPRPRPSAVPRP,-0.126
12,RRIRMRPPRLPRPRPRPTFYPRP,-0.157
13,RRIRIRPPRLPRPRPRPGIIPRP,-0.0859
14,RRIRRRPPRLPRPRPRPSKEPRP,0.137
15,RRIRQRPPRLPRPRPRPMVRPRP,-0.17
16,RRIRRRPPRLPRPRPRPDTYPRP,-0.193
17,RRIRQRPPRLPRPRPRPNEIPRP,-0.217
18,RRIRDRPPRLPRPRPRPYIHPRP,-0.117
19,RRIRMRPPRLPRPRPRPEVAPRP,3.75
20,RRIRARPPRLPRPRPRPEEIPRP,0.289
21,RRIRYRPPRLPRPRPRPTYFPRP,-0.485
22,RRIRLRPPRLPRPRPRPEKPPRP,0.148
23,RRIRVRPPRLPRPRPRPHTLPRP,-0.571
24,RRIRCRPPRLPRPRPRPKEPPRP,0.302
25,RRIRMRPPRLPRPRPRPIPIPRP,0.138

row,Sequence,shrunken log2 fold change
1,RRIRFRPPRLPRPRPRPIVHPRP,-0.581
2,RRIRPRPPRLPRPRPRPTLLPRP,-0.0649
3,RRIRIRPPRLPRPRPRPEGQPRP,-0.0492
4,RRIRPRPPRLPRPRPRPWRPPRP,0.12
5,RRIRRRPPRLPRPRPRPALHPRP,0.651
6,RRIRCRPPRLPRPRPRPIGGPRP,-0.17
7,RRIRRRPPRLPRPRPRPWCRPRP,1.02
8,RRIRQRPPRLPRPRPRPDPLPRP,0.00221
9,RRIRQRPPRLPRPRPRPITVPRP,-0.143
10,RRIRFRPPRLPRPRPRPHHLPRP,-1.06
11,RRIRMRPPRLPRPRPRPTKKPRP,0.0359
12,RRIRQRPPRLPRPRPRPQEMPRP,-0.119
13,RRIRLRPPRLPRPRPRPAGGPRP,0.169
14,RRIRARPPRLPRPRPRPVRVPRP,0.781
15,RRIRARPPRLPRPRPRPRWYPRP,-0.0331
16,RRIRPRPPRLPRPRPRPPCYPRP,0.0837
17,RRIRTRPPRLPRPRPRPWNPPRP,0.0296
18,RRIRPRPPRLPRPRPRPEVAPRP,0.212
19,RRIRVRPPRLPRPRPRPQRSPRP,-0.431
20,RRIRNRPPRLPRPRPRPLGSPRP,-0.0602
21,RRIRIRPPRLPRPRPRPKKNPRP,-0.249
22,RRIRNRPPRLPRPRPRPRHMPRP,-0.199
23,RRIRCRPPRLPRPRPRPCKWPRP,-0.208
24,RRIRIRPPRLPRPRPRPVHVPRP,-0.168
25,RRIRGRPPRLPRPRPRPRMIPRP,0.646

row,Sequence,shrunken log2 fold change
1,RRIRHRPPRLPRPRPRPLVLPRP,-0.0931
2,RRIRWRPPRLPRPRPRPTVCPRP,0.00145
3,RRIRNRPPRLPRPRPRPSNHPRP,-0.603
4,RRIRPRPPRLPRPRPRPDFKPRP,-0.464
5,RRIRLRPPRLPRPRPRPYEMPRP,-0.468
6,RRIRHRPPRLPRPRPRPAPMPRP,0.164
7,RRIRSRPPRLPRPRPRPSSVPRP,-0.354
8,RRIRNRPPRLPRPRPRPQMTPRP,-0.661
9,RRIRCRPPRLPRPRPRPKWMPRP,0.361
10,RRIRFRPPRLPRPRPRPTRKPRP,0.516
11,RRIRIRPPRLPRPRPRPNYWPRP,-0.728
12,RRIRQRPPRLPRPRPRPTACPRP,0.0488
13,RRIRYRPPRLPRPRPRPHPGPRP,-0.727
14,RRIRQRPPRLPRPRPRPAICPRP,-0.0709
15,RRIRWRPPRLPRPRPRPYPCPRP,-0.105
16,RRIRFRPPRLPRPRPRPTSAPRP,0.344
17,RRIRWRPPRLPRPRPRPLVFPRP,0.0454
18,RRIRARPPRLPRPRPRPDSQPRP,0.0999
19,RRIRTRPPRLPRPRPRPMNCPRP,-0.0645
20,RRIRTRPPRLPRPRPRPLYRPRP,0.0015
21,RRIRKRPPRLPRPRPRPEDWPRP,2.01
22,RRIRIRPPRLPRPRPRPGSAPRP,0.267
23,RRIRERPPRLPRPRPRPTDYPRP,-0.349
24,RRIRFRPPRLPRPRPRPACLPRP,-0.105
25,RRIRQRPPRLPRPRPRPHGQPRP,0.184

row,Sequence,shrunken log2 fold change
1,RRIRHRPPRLPRPRPRPEKKPRP,-0.00333
2,RRIRHRPPRLPRPRPRPRPQPRP,0.416
3,RRIRKRPPRLPRPRPRPFFCPRP,0.232
4,RRIRLRPPRLPRPRPRPMANPRP,-0.0744
5,RRIRARPPRLPRPRPRPFKVPRP,0.0346
6,RRIRQRPPRLPRPRPRPPKFPRP,0.117
7,RRIRFRPPRLPRPRPRPQHQPRP,-0.185
8,RRIRVRPPRLPRPRPRPDDMPRP,-0.239
9,RRIRKRPPRLPRPRPRPKIVPRP,0.0401
10,RRIRVRPPRLPRPRPRPYTGPRP,-0.0211
11,RRIRRRPPRLPRPRPRPWAPPRP,0.043
12,RRIRSRPPRLPRPRPRPCQGPRP,-0.028
13,RRIRMRPPRLPRPRPRPCDAPRP,0.261
14,RRIRLRPPRLPRPRPRPYGTPRP,-0.68
15,RRIRKRPPRLPRPRPRPRVMPRP,0.436
16,RRIRVRPPRLPRPRPRPYTCPRP,-0.164
17,RRIRQRPPRLPRPRPRPCQAPRP,-0.187
18,RRIRHRPPRLPRPRPRPWWAPRP,-0.162
19,RRIRCRPPRLPRPRPRPGMWPRP,0.211
20,RRIRARPPRLPRPRPRPADEPRP,0.678
21,RRIRGRPPRLPRPRPRPLFCPRP,0.367
22,RRIRVRPPRLPRPRPRPSSHPRP,-0.344
23,RRIRMRPPRLPRPRPRPAFFPRP,0.403
24,RRIRNRPPRLPRPRPRPYWVPRP,-0.134
25,RRIRIRPPRLPRPRPRPFCPPRP,-0.463

row,Sequence,shrunken log2 fold change
1,RRIRHRPPRLPRPRPRPWLPPRP,-0.0823
2,RRIRCRPPRLPRPRPRPRDYPRP,0.00558
3,RRIRNRPPRLPRPRPRPWASPRP,0.00581
4,RRIRCRPPRLPRPRPRPKSIPRP,-0.349
5,RRIRRRPPRLPRPRPRPYWTPRP,0.000827
6,RRIRERPPRLPRPRPRPATRPRP,0.102
7,RRIRHRPPRLPRPRPRPGYIPRP,-0.176
8,RRIRMRPPRLPRPRPRPSQGPRP,0.179
9,RRIRQRPPRLPRPRPRPCWIPRP,-0.209
10,RRIRRRPPRLPRPRPRPTYWPRP,-0.144
11,RRIRIRPPRLPRPRPRPYPVPRP,-0.18
12,RRIRLRPPRLPRPRPRPDARPRP,0.0258
13,RRIRKRPPRLPRPRPRPRERPRP,0.358
14,RRIRQRPPRLPRPRPRPDMIPRP,-0.303
15,RRIRDRPPRLPRPRPRPKHCPRP,0.0694
16,RRIRPRPPRLPRPRPRPSTSPRP,-0.0506
17,RRIRVRPPRLPRPRPRPGFSPRP,-0.101
18,RRIRQRPPRLPRPRPRPVRSPRP,0.32
19,RRIRARPPRLPRPRPRPSIGPRP,0.111
20,RRIRKRPPRLPRPRPRPGMIPRP,-0.0362
21,RRIRHRPPRLPRPRPRPWTPPRP,-0.502
22,RRIRQRPPRLPRPRPRPVIMPRP,-0.348
23,RRIRQRPPRLPRPRPRPIIGPRP,-0.161
24,RRIRQRPPRLPRPRPRPAYHPRP,-0.826
25,RRIRWRPPRLPRPRPRPMMFPRP,-0.117

row,Sequence,shrunken log2 fold change
1,RRIRVRPPRLPRPRPRPEDPPRP,0.476
2,RRIRYRPPRLPRPRPRPDHPPRP,0.0184
3,RRIRQRPPRLPRPRPRPWPSPRP,0.168
4,RRIRYRPPRLPRPRPRPCSVPRP,-1.08
5,RRIRDRPPRLPRPRPRPDHKPRP,-0.119
6,RRIRMRPPRLPRPRPRPRKYPRP,0.276
7,RRIRLRPPRLPRPRPRPDCKPRP,0.0852
8,RRIRWRPPRLPRPRPRPAANPRP,-0.136
9,RRIRDRPPRLPRPRPRPALYPRP,0.468
10,RRIRCRPPRLPRPRPRPYNTPRP,-0.91
11,RRIRCRPPRLPRPRPRPCLYPRP,-0.117
12,RRIRWRPPRLPRPRPRPKFDPRP,-0.0572
13,RRIRGRPPRLPRPRPRPRKMPRP,0.949
14,RRIRFRPPRLPRPRPRPYKWPRP,-0.298
15,RRIRHRPPRLPRPRPRPCEPPRP,0.195
16,RRIRTRPPRLPRPRPRPNNLPRP,-0.252
17,RRIRPRPPRLPRPRPRPDPQPRP,-0.0397
18,RRIRGRPPRLPRPRPRPSILPRP,1.03
19,RRIRQRPPRLPRPRPRPWHTPRP,-0.169
20,RRIRLRPPRLPRPRPRPNNAPRP,-0.221
21,RRIRWRPPRLPRPRPRPQCTPRP,0.11
22,RRIRRRPPRLPRPRPRPNFKPRP,0.092
23,RRIRGRPPRLPRPRPRPMFFPRP,0.336
24,RRIRNRPPRLPRPRPRPGSPPRP,-0.11
25,RRIRCRPPRLPRPRPRPEGCPRP,3.02
